Here are results for five variants from IntAct's records for PubMed 21785410.

The chains are these.
B1: NAP1-binding protein (Saccharomyces cerevisiae), P52919 (parent)
chain: MLKSVQGLWKDFFGIRDDGRKREYGSLDEVRKRSALRSRRKQMRPTGKSVLKRPRKVTDRKTEEKIRTNRRKTPKRRLTKIFQTIRDVFSNDNENMSKMQNVCGDMTRILKKRSQGRPSYMDTDTAKSRILRSDAFKRKISELKYNKQRISELRSGSSDGSSGKDRNQSLYLDREILLQRQIKKRDEKIKALESKLQSLQEALNYSNEKYRILEDLLDSSNIHPSYTKSRRTMSNLARENDEIKPLKIDLSPSPIRRTNSLFTSSPMKTYNRDGNIPEMQPLQENISPACPTPPYRSRETEKEDETLSPISVDFSSYLS

Variants of B1 are the subject of this experiment. As to conditions: with nic96_yeast NIC96, P34077.
Sequence of nic96_yeast NIC96, P34077 (P34077 whole entry): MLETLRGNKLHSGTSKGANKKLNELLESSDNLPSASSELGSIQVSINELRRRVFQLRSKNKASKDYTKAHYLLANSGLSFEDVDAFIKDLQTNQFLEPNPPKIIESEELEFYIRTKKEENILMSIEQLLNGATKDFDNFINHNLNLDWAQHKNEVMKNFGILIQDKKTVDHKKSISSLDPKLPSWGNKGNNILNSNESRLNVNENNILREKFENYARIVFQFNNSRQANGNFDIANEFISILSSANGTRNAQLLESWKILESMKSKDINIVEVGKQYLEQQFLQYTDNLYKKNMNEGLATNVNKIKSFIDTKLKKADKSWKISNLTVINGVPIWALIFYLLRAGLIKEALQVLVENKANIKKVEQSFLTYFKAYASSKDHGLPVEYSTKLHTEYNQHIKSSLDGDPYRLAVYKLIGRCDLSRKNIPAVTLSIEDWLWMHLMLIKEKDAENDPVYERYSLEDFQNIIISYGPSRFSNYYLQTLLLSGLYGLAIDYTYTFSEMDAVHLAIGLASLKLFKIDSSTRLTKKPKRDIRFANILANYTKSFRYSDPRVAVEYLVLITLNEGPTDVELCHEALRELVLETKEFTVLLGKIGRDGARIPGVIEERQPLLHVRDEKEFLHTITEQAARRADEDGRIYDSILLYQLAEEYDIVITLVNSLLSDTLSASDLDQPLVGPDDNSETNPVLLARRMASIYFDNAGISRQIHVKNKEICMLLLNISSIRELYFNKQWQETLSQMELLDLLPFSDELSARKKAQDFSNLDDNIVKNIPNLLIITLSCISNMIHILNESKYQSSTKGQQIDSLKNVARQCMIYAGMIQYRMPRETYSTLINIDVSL
Take MLKSVQGLAKDFFGIRDDGRKREYGSLDEVRKRSALRSRRKQMRPTGKSVLKRPRKVTDRKTEEKIRTNRRKTPKRRLTKIFQTIRDVFSNDNENMSKMQNVCGDMTRILKKRSQGRPSYMDTDTAKSRILRSDAFKRKISELKYNKQRISELRSGSSDGSSGKDRNQSLYLDREILLQRQIKKRDEKIKALESKLQSLQEALNYSNEKYRILEDLLDSSNIHPSYTKSRRTMSNLARENDEIKPLKIDLSPSPIRRTNSLFTSSPMKTYNRDGNIPEMQPLQENISPACPTPPYRSRETEKEDETLSPISVDFSSYLS [W9A]: the “effect of a mutation on the interaction” value was “disrupting interaction”. For the variant MLKSAQGLWKDFFGIRDDGRKREYGSLDEVRKRSALRSRRKQMRPTGKSVLKRPRKVTDRKTEEKIRTNRRKTPKRRLTKIFQTIRDVFSNDNENMSKMQNVCGDMTRILKKRSQGRPSYMDTDTAKSRILRSDAFKRKISELKYNKQRISELRSGSSDGSSGKDRNQSLYLDREILLQRQIKKRDEKIKALESKLQSLQEALNYSNEKYRILEDLLDSSNIHPSYTKSRRTMSNLARENDEIKPLKIDLSPSPIRRTNSLFTSSPMKTYNRDGNIPEMQPLQENISPACPTPPYRSRETEKEDETLSPISVDFSSYLS [V5A], the “effect of a mutation on the interaction” value was “disrupting interaction”. On to MLKSVQGLWKDAFGIRDDGRKREYGSLDEVRKRSALRSRRKQMRPTGKSVLKRPRKVTDRKTEEKIRTNRRKTPKRRLTKIFQTIRDVFSNDNENMSKMQNVCGDMTRILKKRSQGRPSYMDTDTAKSRILRSDAFKRKISELKYNKQRISELRSGSSDGSSGKDRNQSLYLDREILLQRQIKKRDEKIKALESKLQSLQEALNYSNEKYRILEDLLDSSNIHPSYTKSRRTMSNLARENDEIKPLKIDLSPSPIRRTNSLFTSSPMKTYNRDGNIPEMQPLQENISPACPTPPYRSRETEKEDETLSPISVDFSSYLS [F12A], for which the “effect of a mutation on the interaction” value is given as “disrupting interaction”. As to MLKSVQGLWKDFAGIRDDGRKREYGSLDEVRKRSALRSRRKQMRPTGKSVLKRPRKVTDRKTEEKIRTNRRKTPKRRLTKIFQTIRDVFSNDNENMSKMQNVCGDMTRILKKRSQGRPSYMDTDTAKSRILRSDAFKRKISELKYNKQRISELRSGSSDGSSGKDRNQSLYLDREILLQRQIKKRDEKIKALESKLQSLQEALNYSNEKYRILEDLLDSSNIHPSYTKSRRTMSNLARENDEIKPLKIDLSPSPIRRTNSLFTSSPMKTYNRDGNIPEMQPLQENISPACPTPPYRSRETEKEDETLSPISVDFSSYLS [F13A], the “effect of a mutation on the interaction” value was “disrupting interaction”. To MAKSVQGLWKDFFGIRDDGRKREYGSLDEVRKRSALRSRRKQMRPTGKSVLKRPRKVTDRKTEEKIRTNRRKTPKRRLTKIFQTIRDVFSNDNENMSKMQNVCGDMTRILKKRSQGRPSYMDTDTAKSRILRSDAFKRKISELKYNKQRISELRSGSSDGSSGKDRNQSLYLDREILLQRQIKKRDEKIKALESKLQSLQEALNYSNEKYRILEDLLDSSNIHPSYTKSRRTMSNLARENDEIKPLKIDLSPSPIRRTNSLFTSSPMKTYNRDGNIPEMQPLQENISPACPTPPYRSRETEKEDETLSPISVDFSSYLS [L2A] belongs “disrupting interaction”.
